In general, Ki refers to the dissociation constant of the complex between target and ligand, obtained from inhibition or displacement. Low readings indicate higher affinity, high ones lower affinity.

Assay [1] concerns the target T1, MC-2 receptor, polypeptide of SEQ ID NO:16 (human, UniProt P33032 1-325).
T1 construct: Tested on COS-7 cells transfected with pE-MC-2; also called MSH receptor subtype; pE-MC-2 transfected COS-7 cells
T1 chain: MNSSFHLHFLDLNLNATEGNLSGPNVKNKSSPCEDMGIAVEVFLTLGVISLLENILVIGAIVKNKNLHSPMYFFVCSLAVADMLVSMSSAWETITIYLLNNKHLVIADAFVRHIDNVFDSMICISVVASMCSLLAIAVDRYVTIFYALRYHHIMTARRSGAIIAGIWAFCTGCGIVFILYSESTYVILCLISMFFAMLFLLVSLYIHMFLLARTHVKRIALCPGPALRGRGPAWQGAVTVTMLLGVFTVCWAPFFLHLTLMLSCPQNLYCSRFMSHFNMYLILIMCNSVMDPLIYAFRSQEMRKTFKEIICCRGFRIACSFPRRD
The assay can be described thus: competition with 125I-NDP-MSH on pE-MC-2 transfected COS-7 cells. On the procedure:
(§1) Eighty percent confluent cultures were transfected with 1 μg of pE-MC-2 plasmid DNA and 40 μg lipofectin (BRL, 8400 Helgerman Court, Gaithersburg, Md. 20877, USA) in serum free medium. Five hours after transfection, serum containing medium was replaced, and cells were cultivated for 20 hours. Cells were then scraped off, centrifuged, resuspended in serum containing medium, plated on 48 well plates, and allowed to grow for 24 hours. […] Radioactivity was counted and data analyzed by iterative, non-linear curve fitting programme suitable for radioligand binding analysis (see FIG. 9). […] The Kᵢ-values were then calculated from the IC-50 values estimated thus estimated by using the Cheng and Prusoff equation, as previously described (Cheng and Prusoff 1973).

Assay [2] deals with T2, human melanocyte stimulating hormone receptor (MSH receptor), polypeptide of SEQ ID NO:2 (human, UniProt Q01726 1-317).
T2 construct: also called 11D cDNA product; expressed MSH receptor
T2 sequence: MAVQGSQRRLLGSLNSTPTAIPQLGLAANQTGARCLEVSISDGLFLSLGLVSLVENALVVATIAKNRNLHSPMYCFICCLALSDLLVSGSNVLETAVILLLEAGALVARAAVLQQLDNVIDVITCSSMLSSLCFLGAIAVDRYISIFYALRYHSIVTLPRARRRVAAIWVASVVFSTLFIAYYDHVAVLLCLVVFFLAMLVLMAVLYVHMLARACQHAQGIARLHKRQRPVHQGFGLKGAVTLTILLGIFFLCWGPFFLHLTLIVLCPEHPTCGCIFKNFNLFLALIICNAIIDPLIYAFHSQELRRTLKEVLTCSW
The assay can be described thus: competition with 125I-NDP-MSH on pE-11D transfected COS-7 cells; Cheng-Prusoff from IC50. The procedure:
as §1, with “20877, USA). Eighty” for “Eighty”, “pE-11D” for “pE-MC-2”, “6).” for “9).”

In assay [3] the target is T1, MC-2 receptor, polypeptide of SEQ ID …. Description: competition with 125I-NDP-MSH on pE-MC-2 transfected COS-7 cells; Cheng-Prusoff from IC50. The procedure: as §1

B1: β-endorphin (peptide, UniProt P01189 237-267, looked up)
peptide: YGGFMTSEKSQTPLVTLFKNAIIKNAYKKGE
notes: domain: β-endorphin; Bought from Saxon Biochemicals GmbH; also called non-melanotropic POMC peptide β-endorphin
Consider B1, for which the binding result in assay [1] is listed as “no binding”.

B2: ACTH (4-10) (peptide, UniProt P01189 141-147, looked up)
peptide: MEHFRWG
notes: domain: ACTH (4-10); Bought from Saxon Biochemicals GmbH
As for B2, in assay [2], the Ki was found to be 22.4 nM. In other words, the double-digit nanomolar range.

B3: ACTH (1-39) (peptide, UniProt P01189 138-176, looked up)
peptide: SYSMEHFRWGKPVGKKRRPVKVYPNGAEDESAEAFPLEF
notes: domain: ACTH (1-39); Bought from Saxon Biochemicals GmbH; also called adrenocorticotropic hormone (1-39)
With B3, the results for the Ki in assay [2] and in assay [3] were 0.17 nM and 929 nM, respectively.

B4: β-MSH (peptide, UniProt P01189 217-234, looked up)
peptide: DEGPYRMEHFRWGSPPKD
notes: domain: β-MSH; Bought from Saxon Biochemicals GmbH; also called beta-melanocyte stimulating hormone
In the case of B4, the values for the Ki in assay [2] and in assay [3] were 0.449 nM and 1750 nM, respectively.

(Values after patent US20020142392A1 (WA PHARM, published 2002).)
